T1: human CD98hc (human, UniProt P08195 105-529)
T1 construct: Soluble protein flowed over captured tripod mAbs in SPR; also called huCD98hc; human CD98 heavy chain
T1 sequence: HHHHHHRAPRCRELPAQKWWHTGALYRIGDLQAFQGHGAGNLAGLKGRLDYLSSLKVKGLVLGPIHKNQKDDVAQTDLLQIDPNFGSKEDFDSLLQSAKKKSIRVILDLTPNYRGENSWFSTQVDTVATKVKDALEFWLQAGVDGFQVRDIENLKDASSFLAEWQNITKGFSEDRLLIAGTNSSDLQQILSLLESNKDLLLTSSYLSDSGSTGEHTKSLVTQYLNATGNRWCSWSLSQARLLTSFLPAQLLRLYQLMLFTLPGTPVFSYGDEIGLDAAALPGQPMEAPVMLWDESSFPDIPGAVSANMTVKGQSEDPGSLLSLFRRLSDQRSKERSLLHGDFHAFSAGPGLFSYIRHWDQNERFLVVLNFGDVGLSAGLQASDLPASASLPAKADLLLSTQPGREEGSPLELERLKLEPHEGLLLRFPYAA


Target: T1, human CD98hc
Experiment: SPR ProteOn, mAb captured by anti-Fc, huCD98hc flowed, 1:1 model
Method: An Fc capture surface was generated by coupling anti-IgG Fc mAb (Jackson ImmunoResearch) to a GLC chip (BioRad) using the amine-coupling chemistry (BioRad).
The chip surface was regenerated with two 18 second pulses of 100 mM H3PO4 (Sigma) at 100 μL/min. The collected data were processed using ProteOn Manager software V3.1.0.6 (BioRad). First, the data was corrected for background using inter-spots. Then, double reference subtraction of the data was performed by using the buffer injection for analyte injections. The kinetic analysis of the data was performed using a Langmuir 1:1 binding model.

Binder | Kd | koff | kon
BBBB1201 (bispecific antibody) heavy 1: EVQLVESGGGLVKPGGSLRLSCAASGFTFSSYAMSWVRQAPGKGLEWVASISKGGNTYYPDSVKGRFTISRDNAKNSLYLQMNSLRAEDTAVYYCARGWGDYGWFAYWGQVTLVTVSSASTKGPSVFPLAPSSKSTSGGTAALGCLVKDYFPEPVTVSWNSGALTSGVHTFPAVLQSSGLYSLSSVVTVPSSSLGTQTYICNVNHKPSNTKVDKKVEPKSCDKTHTCPPCPAPEAAGGPSVFLFPPKPKDTLYITREPEVTCVVVSVSHEDPEVKFNWYVDGVEVHNAKTKPREEQYNSTYRVVSVLTVLHQDWLNGKEYKCKVSNKALPAPIEKTISKAKGQPREPQVYVYPPSREEMTKNQVSLTCLVKGFYPSDIAVEWESNGQPENNYKTTPPVLDSDGSFALVSKLTVDKSRWQQGNVFSCSVMHEALHNHYTQKSLSLSPGGGAGGAQVQLVESGGGVVQPGRSLRLSCAASGFTFSSYGMHWVRQAPGKGLEWVAIISYDGSNKHYADSVKGRFTISRDNSKNTLYLQMNSLRAEDTAVYYCARAPSAFYFDYWGQGTLVTVSSGTEGKSSGSGSESKSTDIVMTQSPDSLAVSLGERATINCKSSQSVLFSSNNKNYLAWYQQKPGQPPKLLIYWASTRESGVPDRFSGSGSGTDFTLTISSLQAEDVAVYYCQQYYSTPPTFGQGTKVVIK light: DIQMTQSPSSLSASVGDRVTITCKASQDINRYLNWFQQKPGKAPKTLIYRANRLLDGVPSRFSGSGSGTDFTLTISSLQPEDFATYYCQQYDEFPLTFGQGTKLEIKRTVAAPSVFIFPPSDEQLKSGTASVVCLLNNFYPREAKVQWKVDNALQSGNSQESVTEQDSKDSTYSLSSTLTLSKADYEKHKVYACEVTHQGLSSPVTKSFNRGEC heavy 2: EVQLVESGGGLVKPGGSLRLSCAASGFTFSSYAMSWVRQAPGKGLEWVASISKGGNTYYPDSVKGRFTISRDNAKNSLYLQMNSLRAEDTAVYYCARGWGDYGWFAYWGQVTLVTVSSASTKGPSVFPLAPSSKSTSGGTAALGCLVKDYFPEPVTVSWNSGALTSGVHTFPAVLQSSGLYSLSSVVTVPSSSLGTQTYICNVNHKPSNTKVDKKVEPKSCDKTHTCPPCPAPEAAGGPSVFLFPPKPKDTLYITREPEVTCVVVSVSHEDPEVKFNWYVDGVEVHNAKTKPREEQYNSTYRVVSVLTVLHQDWLNGKEYKCKVSNKALPAPIEKTISKAKGQPREPQVYVLPPSREEMTKNQVSLLCLVKGFYPSDIAVEWESNGQPENNYLTWPPVLDSDGSFFLYSKLTVDKSRWQQGNVFSCSVMHEALHNHYTQKSLSLSPG | 16.9 nM | 0.006 s⁻¹ | 357000 M⁻¹ s⁻¹
BBBB1202 (bispecific antibody) heavy 1: EVQLVESGGGLVKPGGSLRLSCAASGFTFSSYAMSWVRQAPGKGLEWVASISKGGNTYYPDSVKGRFTISRDNAKNSLYLQMNSLRAEDTAVYYCARGWGDYGWFAYWGQVTLVTVSSASTKGPSVFPLAPSSKSTSGGTAALGCLVKDYFPEPVTVSWNSGALTSGVHTFPAVLQSSGLYSLSSVVTVPSSSLGTQTYICNVNHKPSNTKVDKKVEPKSCDKTHTCPPCPAPEAAGGPSVFLFPPKPKDTLYITREPEVTCVVVSVSHEDPEVKFNWYVDGVEVHNAKTKPREEQYNSTYRVVSVLTVLHQDWLNGKEYKCKVSNKALPAPIEKTISKAKGQPREPQVYVYPPSREEMTKNQVSLTCLVKGFYPSDIAVEWESNGQPENNYKTTPPVLDSDGSFALVSKLTVDKSRWQQGNVFSCSVMHEALHNHYTQKSLSLSPGGGAGGAQVQLVESGGGVVQPGRSLRLSCAASGFTFSSYGMHWVRQAPGKGLEWVAIISYDGSNKHYADSVKGRFTISRDNSKNTLYLQMNSLRAEDTAVYYCARAPSHFYFDYWGQGTLVTVSSGTEGKSSGSGSESKSTDIVMTQSPDSLAVSLGERATINCKSSQSVLFSSNNKNYLAWYQQKPGQPPKLLIYWASTRESGVPDRFSGSGSGTDFTLTISSLQAEDVAVYYCQQYYSTPPTFGQGTKVVIK light: DIQMTQSPSSLSASVGDRVTITCKASQDINRYLNWFQQKPGKAPKTLIYRANRLLDGVPSRFSGSGSGTDFTLTISSLQPEDFATYYCQQYDEFPLTFGQGTKLEIKRTVAAPSVFIFPPSDEQLKSGTASVVCLLNNFYPREAKVQWKVDNALQSGNSQESVTEQDSKDSTYSLSSTLTLSKADYEKHKVYACEVTHQGLSSPVTKSFNRGEC heavy 2: EVQLVESGGGLVKPGGSLRLSCAASGFTFSSYAMSWVRQAPGKGLEWVASISKGGNTYYPDSVKGRFTISRDNAKNSLYLQMNSLRAEDTAVYYCARGWGDYGWFAYWGQVTLVTVSSASTKGPSVFPLAPSSKSTSGGTAALGCLVKDYFPEPVTVSWNSGALTSGVHTFPAVLQSSGLYSLSSVVTVPSSSLGTQTYICNVNHKPSNTKVDKKVEPKSCDKTHTCPPCPAPEAAGGPSVFLFPPKPKDTLYITREPEVTCVVVSVSHEDPEVKFNWYVDGVEVHNAKTKPREEQYNSTYRVVSVLTVLHQDWLNGKEYKCKVSNKALPAPIEKTISKAKGQPREPQVYVLPPSREEMTKNQVSLLCLVKGFYPSDIAVEWESNGQPENNYLTWPPVLDSDGSFFLYSKLTVDKSRWQQGNVFSCSVMHEALHNHYTQKSLSLSPG | 52.9 nM | 0.00882 s⁻¹ | 167000 M⁻¹ s⁻¹

Reference: patent US20230174669A1 (ALIADA THERAPEUTICS, published 2023)
